# B1: CD22-specific binder (scFv1) 16P (scFv)
# scFv: QVQLQQSGPGLVKPSQTLSLTCAISGDSVSSNSAAWNWIRQSPSRGLEWLGRTYYRSKWYNDYAVSVKSRITINPDTSKNQFSLQLNSVTPEDTAVYYCAQEVQPHDAFDIWGQGTMVTVSSGGGGSGGGGSGGGGSDIQMTQSPSSVSASVGDKVTITCRASQDVSGWLAWYQQKPGLAPQLLIFGASTLQGEVPSRFSGSGSGTDFTLTISSLQPEDFATYYCQQAKNFPYTFGQGTKLEIKR
# notes: also called founder clone
# B2: CD22-specific binder (scFv18) 16P15 (scFv)
# scFv: QVQLQQSGPGLVKPSQTLSLTCAISGDSVSSNSAAWNWIRQSPSRGLEWLGRTYYRSKWYNDYAVSVKSRITINPDTSKNQFSLQLNSVTPEDTAVYYCAQEVEPHDALDIWGQGTMVTVSSGGGGSGGGGSGGGGSDIQMTQSPSSVSASVGDKVTITCRASQDVSGWLAWYQQKPGLAPQLLIFGASTLQGEVPSRFSGSGSGTDFTLTISSLQPEDFATYYCQQAKYFPYTFGQGTKLEIK
# B3: CD22-specific binder (scFv6) 16P3 (scFv)
# scFv: QIQLQQSGPGLVKPSQTLSLTCAISGDSVSSNSAAWNWIRQSPSRGLEWLGRTYYRSKWYNDYAVSVKSRITINPDTSKNQFSLQLNSVTPEDTAVYYCAQEVQPDDALDIWGQGTMVTVSSGGGGSGGGGSGGGGSDIQMTQSPSSVSASVGDKVTITCRASQDVSGWLAWYQQKPGLAPQLLISGASTLQGEVPSRFSGSGSGTDFTLTISSLQPEDFATYYCQQAKNFPYTFGQGTKLEIK
# B4: CD22-specific binder (scFv7) 16P16 (scFv)
# scFv: QVQLQQSGPGLVKPSQTLSLTCAISGDSVSSNSAAWNWIRQSPSRGLEWLGRTYYRSKWYNDYAVSVKSRITINPDTFKNQFSLQLNSVTPEDTAVYYCAQEVEPHDALDIWGQGTMVTVSSGGGGSGGGGSGGGGSDIKMTQSPSSVSASVGDKVTITCRASQDVSGWLAWYQQKPGLAPQLLIFGASTLQGEVPSRFSGSGSGTDFTLTISSLQPEDFATYYCQQAKYFPYTFGQGTKLEIK
# B5: CD22-specific binder (scFv9) 16P2 (scFv)
# scFv: QVQLQQSGPGLVKPSQTLSLTCAISGDSVSSNSAAWNWIRQSPSRGLEWLGRTYYRSKWYNDYAVSVKSRITINPDTFKNQFSLQLNSVTPEDTAVYYCAQEVEPHDALDIWGQGTMVTVSSGGGGSGGGGSGGGGSDIKMTQSPSSVSASVGDKVTITCRASQDVSGWLAWYQQKPGLAPQLLIFGASTLQGEVPSRFSGSGSGTDFTLTISSLQPEDFATYYCQQAKYFPYTFGQGTKLEIK
# B6: CD22-specific binder (scFv10) 16P6 (scFv)
# scFv: QVQLQQSGPGLVKPSQTLSLTCAISGDSVSSNSAAWNWIRQSPSRGLEWLGRTYYRSKWYNDYAVSVKSRITINPDTSKNQFSLQLNSVTPEDTAVYYCAQEVQPDDAFDIWGQGTMITVSSGGGGSGGGGSGGGGSDIQMTQSPSSVSASVGDKVTITCRASQDVSGWLAWYQQKPGLAPQLLISGASTLQGGVPSRFSGSGSGTDFTLTISSLQPEDFATYYCQQAKNFPYTFGQGTKLEIK
# B7: CD22-specific binder (scFv11) 16P10 (scFv)
# scFv: QVQLQQSGPGLVKPSQTLSLTCAISGDSVSSNSAAWNWIRQSPSRGLEWLGRTYYRSKWYNDYAVSVKSRITINPDTSKNQFSLQLNSVTPEDTAVYYCAQEVEPQDAFDIWGQGTMVTVSSGGGGSGGGGSGGGGSDIQMTQSPSSVSASVGDKVTITCRASQDVSGWLAWYQQKPGLAPQLLIFGASTLQGEVPSRFSGSGSGTDFTLTISSLQPEDFATYYCQQAKYFPYTFGPGTKLEIK
# B8: CD22-specific binder (scFv12) 16P17 (scFv)
# scFv: QVQLQQSGPGLVKHSQTLSLTCAISGDSVSSNSAAWNWIRQSPSRGLEWLGRTYYRSKWYNDYAVSVKSRITINPDTSKNQFSLQLNSVTPEDTAVYYCAQEVEPHDAFDIWGQGTMVTVSSGGGGSGGGGSGGGGSDIQMTQSPSSVYASVGDKVTITCRASQDVSGWLAWYQQKPGLAPQLLISGASTLQGEVPSRFSGSGSGTDFTLTISSLQPEDFATYYCQQAKYFPYTFGQGTKLEIK
# B9: CD22-specific binder (scFv13) 16P20v2 (scFv)
# scFv: QVQLQQSGPGLVKPSQTLSLTCAISGDSVSSNSAAWNWIRQSPSRGLEWLGRTYYRSKWYNDYAVSVKSRITINPDTSKNQFSLQLNSVTPEDTAVYYCAQEVQPDDAFDIWGQGTMVTVSSGGGGSGGGGSGGGGSDIQMTQSPSSVSASVGDKVTITCRASQDVSGWLAWYQQKPGLAPQLLISGASTLQGEVPSRFSGSGSGTDFTLTISSLQPEDFATYYCQQAKNFPYTFGQGTKLEIK
# B10: CD22-specific binder (scFv14) 16P1 (scFv)
# scFv: QVQLQQSGPGLVKPSQTLSLTCDISGDSVSSNSAAWNWIRQSPSRGLEWLGRTYYRSKWYNDYAVSVKSRITINPDTSKNQFSLQLNSVTPEDTAVYYCAQEIEPHDAFDIWDQGTMVTVSSGGGGSGGGGSGGGGSVIQMTQSPSSVSASVGDKVTITCRASQDVSGWLAWYQQKPGLAPQLLISGASSLQGGVPSRFSGSGSGTDFTLTISSLQPEDFATYYCQQAKYFPYTFGQGTKLEIK
# B11: CD22-specific binder (scFv15) 16P3v2 (scFv)
# scFv: QVQLQQSGPGLVKHSQTLSLACAISGDSVSSNSAAWNWIRQSPSRGLEWLGRTYYRSKWYNDYAVSVKSRITINPDTSKNQFSLQLNSVTPEDTAVYYCAQEVQPQDALDIWGQGTMVTVSSGGGGSGGGGSGGGGSDIQMTQSPSFVSASVGDKVIITCRASQDVSGWLAWYQQKPGLAPQLLISGASTLQGEVPSRFSGSGSGTDFTLTISSLQPEDFATYYCQQAKYFPYTFGQGTKLEIK
# B12: CD22-specific binder (scFv16) 16P8 (scFv)
# scFv: QVQLQQSGPGLVKPSQTLSLTCAISGDSVSSNSAAWNWIRQSPSRGLEWLGRTYYRSKWYTDYAVSVKNRITINPDTSKNQFSLQLNSVTPEDTAVYYCAQEVEPQDAFDIWGQGTMVTVSSGGGGSGGGGSGGGGSDIQMTQSPSSVSASVGDKVTITCRASQDVSGWLAWYQQKPGLAPQLLIFGASTLQGEVPSRFSGSGSGTDFTLTISSLQPEDFATYYCQQAKYFPYTFGRGTKLEIK
# B13: CD22-specific binder (scFv17) 16P13 (scFv)
# scFv: QVQLQQSGPGLVKPSQTLSLTCAISGNSVSSNSAAWNWIRQSPSRGLEWLGRTYYRSKWYNDYAVSVKSRITINPDTSKNQFSLQLNSVTPEDTAVYYCAQEVEPQDAFDIWGQGTMVTVSSGGGGSGGGGSGGGGSDIQMTQSPSSVSASVGDKVTITCRASQDVSGWLAWYQQKPGLAPQLLIFGASTLQGEVPSRFSGGGSGTDFTLTISSLQPEDFATYYCQQAKYFPYTFGQGTKLEIK
# B14: CD22-specific binder (scFv8) 16P20 (scFv)
# scFv: QVQLQQSGPGLVKPSQTLSLTCAISGDSVSSNSAAWNWIRQSPSRGLEWLGRTYYRSKWYNDYAVSVKSRITINPDTSKNQFSLQLNSVTPEDTAVYYCAQEVEPHDALDIWGQGTMVTVSSGGGGSGGGGSGGGGSDIQMTQSPSSVSASVGDKVTITCRASQDVSGWLAWYQQKPGLAPQLLIFGASTLQGEVPSRFSGSGSGTDFTLTISSLQPEDFATYYCQQAKYFPYTFGQGTKLEIK
# B15: CD22-specific binder (scFv3) 25P (scFv)
# scFv: QVQLQQSGPGLVKPSQTLSLTCAISGDSVSSNSAAWNWIRQSPSRGLEWLGRTYYRSKWYNDYAVSVKSRITINPDTSKNQFSLQLNSLTPEDTAVYYCAREHQNEAAFDIWGQGTMVTVSSGGGGSGGGGSGGGGSQSVLTQPPSASGTPGQRVTISCSGGGSNIGTNTASWYQQLPGTAPKLLIYRNTQRPSGIPDRFSGSKSGTSASLAISGLQSEDEADYYCAAWDDSLNGYVFGAGTQLTVLG
# notes: Lambda light chain
# B16: CD22-specific binder (scFv5) 12s (scFv)
# scFv: QVQLQQSGPGLVKPSQTLSLTCAISGDSVSSNSAAWNWIRQSPSRGLEWLGRTYYRSKWYNDYAVSVKSRITINPDTSKNQFSLQLNSVTPEDTAVYYCAREGDDALDIWGQGTMVTVSSGGGGSGGGGSGGGGSDIQMTQSPSSLSASVGDRVTITCRASQSISHFLNWYQQKPGTAPKLLITTASGLGSGVPSRFSGSGSGTDFTLTINSLQPEDLATYYCQQSYTTPLTFGGGTKLEIKR
# Columns and labels:
# [1] = biological target: T1, recombinant human CD22 (labeled CD22 used in flow cytometry of yeast) (human, UniProt P20273 20-687, limits assumed, fluorescent label, not specified); assay: flow cytometry of yeast-displayed scFv with decreasing amounts of labeled CD22
# T1 construct: also called fluorescently tagged antigen
# Procedure: After electroporation, the resulting mutant library was then grown overnight at 30° C. for 16 hours in SDCAA medium and then switched into SGCAA medium at 30° C. for another 16 hours. The mutant library was then sorted through MACS (immunomagentic column, Miltenyi Biotec) with CD22-Fc as the capture antigen to downsize the library and to increase the population of mutants that could bind to CD22-Fc. The strongest binders were then selected by double staining the pools with Anti-c-Myc-Alexa 488 and […]/Anti-Hu-Fc and selecting for the binders that had the highest binding affinities as well as c-Myc expression levels. […] Binding affinities were estimated by flow cytometry of yeast pools using decreasing amounts of labeled CD22.
# [2] = biological target: T2, CD22 expressed on cells (CHOK1-CD22, K562-CD22, Raji, Reh) (human, UniProt P20273 20-847); assay: yeast display cell panning on CHOK1 cells transfected with CD22
# T2 construct: whole, on cells; also called SIGLEC-2; Leu14
# Procedure: The same ScFv starting material as for phage display was also incorporated into a yeast ScFv display system. To supplement phage-based scFv analysis, yeast libraries expressing the human scFv library were also screened. To enrich the yeast expressing scFvs that bind to both the recombinant CD22-Fc and the […] expressed on the cell surface of the CHOK1 cells, cell panning on CHOK1 transfected with CD22 cells was performed. For the first round of panning on the cell surface, two days prior to panning, the CHOK1-CD22 cells were seeded into 6-well plates and grown to 50% confluency in F12 K medium. 5×10⁷ yeast cells were then washed 2× with PBSA buffer and resuspended into 3 mL F12 K medium, and then gently added dropwise to the CHOK1-CD22 cells. […] The cell mix containing both the yeast and CHOK1 cells were then inoculated into 10 mL SDCAA medium and amplified overnight at 30° C. and then induced in SGCAA medium at 30° C. for 16 hours. For the second round of cell panning, a similar protocol as above was performed, but more stringent wash conditions were used. […] Binder sequences were incorporated into CART constructs as described in Example 2, infra, in a series of in vitro CART functional assays.
Binder,EC50 [1] [µg/mL],binding result [2]
B1,0.5,
B2,< 0.01,
B3,< 0.01,
B4,< 0.01,
B5,< 0.01,
B6,< 0.01,
B7,< 0.01,
B8,< 0.01,
B9,< 0.01,
B10,< 0.01,
B11,< 0.01,
B12,< 0.01,
B13,< 0.01,
B14,< 0.01,
B15,,binds
B16,,binds

# — patent publication US20200155661A1 (LENTIGEN TECHNOLOGY, published 2020)
